Reference: patent US9944712B2, “TLR3 binding agents” (INNATE PHARMA, priority 2012, dated 2018)

Key:
[1] = system: COPD mouse model; experiment: COPD mouse model (Elastin and LPS); assay type: in vivo; conditions: drug combination study, FIG. 5E
Description: All mice were treated at days 0, 7, 14 and 21 with Elastin and LPS (i.n.), to induce COPD. At day 28 mice were sacrificed for analysis.
The cellular infiltrates into airways was measured by analysis of bronchoalveolar lavage (BAL) fluid by differential cell count on day 28. The oxygenation of venous blood was measured by gasometry on day 28. The level inflammatory mediators in BALF, through the analysis for protein levels of TNF-alpha, IL-6, IL-17A and IP-10 was performed by multiplex assay. […] Statistical analysis was performed on all data utilizing a Student's t test: ‘*’ p<0.05; ‘**’ p<0.005; ‘***’ p<0.0005.
Four groups of mice were treated as follows: • 1 group of mice with a vehicle (PBS, i.p., twice per week). • 1 group of mice with the anti-mouse TLR3 28G7 antibody administration (i.p., 500 μg/per mouse, […]; antagonist of PDE-4) (3 mg/kg, oral, five times per week). • 1 group of mice with both roflumilast and 28G7 antibody, each agent according to the schedule used as single agent.
All mice were treated with Elastin and LPS (i.n.), to induce COPD and sacrificed as in study A.
The cellular infiltrates into airways was measured by analysis of bronchoalveolar lavage (BAL) fluid by differential cell count as in Study A.

[2] = system: TLR3 mutant polypeptides; experiment: FACS staining of cells expressing TLR3 mutant polypeptides (epitope mapping); assay type: binding, human; conditions: for binding to wild type TLR3 and mutants K145E, D116R, E171A, K182E or N196A: FACS; for binding to TLR3 in presence of the mutation K145E or K182E: hybridoma clone screening
Description: Mutagenesis was performed on wild type human TLR3 inserted into a pcDNA3.1 vector. After sequencing, the vectors containing the mutated sequences were prepared as Maxiprep using the Promega PureYield™ Plasmid Maxiprep System. Vectors were then used for HEK-293T cell transfection using Invitrogen's Lipofectamine 2000 according to the manufacturer instructions.
All the Mx-R primers were used with the following 5′ primer […] (SEQ ID NO: 121). All the Mx-F primers were used with the following 3′ primer […] (SEQ ID NO: 122). The sequences amplified were run on agarose gel then purified using the Qiagen Gel Extraction kit. The two PCR product generated for each mutant were then ligated into a pcDNA3.1 vector, digested with the restriction enzyme NheI and NotI, with the InFusion system (Clontech) according to the manufacturer's instructions.
After sequencing, the vectors containing the mutated sequences were prepared as Maxiprep using the Promega PureYield™ Plasmid Maxiprep System. Vectors were then used for HEK-293T cell transfection using Invitrogen's Lipofectamine 2000 according to the manufacturer instructions.
(§1) The mature wild-type or mutant TLR3 sequence was fused to the CD32 transmembrane and intracellular domains as described by De Bouteiller et al. (2005) J. Biol. Chem. 280(46): 38133-38145. A first round of PCR was performed to introduce a V5 tag in N-terminal position of the TLR3-CD32 fusion protein and a second round—using the first PCR as a template—to introduce the TLR3 leader peptide in the construct. The PCR product was TA-cloned into the pGEMTeasy vector for sequencing and finally cloned into the pcDNA3.1 vector using the NheI and NotI restriction sites.
(§2) Following two wash cycles, cell MFI was analyzed on a FACS Canto II cytometer. With the aim to study the effect of pH on mAb affinity, staining was performed in staining buffer (0.2% BSA, 2 mM EDTA, 0.02% Sodium Azoture) pH7.4 or in citric acid-acidified staining buffer pH5.6.
Secondary screening was performed as in immunization #1, above. Potentially interesting hybridomas were cloned by limiting dilution techniques in 96-wells plates, and clones were tested in the same series of secondary screens as for hybridomas. With the aim to compare hybridomas to our reference anti-TLR3 mAbs, the hybridomas were amplified and their supernatants were purified. Purified mAbs were tested in a gene-reporter assay.
Antibodies were then tested for binding to further set of mutants in the N-terminal portion of TLR3 to identify new epitopes. Antibodies were therefore tested for binding to TLR3 mutants. TLR3 mutant polypeptides having mutations in positions Q44H and V45I, R64Q and R65Q, T86S and K89Q, K97I and M100L, K117Q and A120V, Q136H, N140S, V144K and K145N, K147A, K163A, Q167G, Q184L and K187R, Q184L and K187Q, D192E and A195G, Q208P and 1209L, H218Q, A219T, G234N and S236H, L243W and A246S, S112A. Q113S. and S115A, and K137S and K139A (reference to SEQ ID NO: 1) were prepared as described herein in the Materials and Methods and anti-TLR3 antibody staining to cells expressing TLR3 mutant polypeptides was assessed by FACS.

[3] = target: T1, human TLR3 solely at the cell surface (TLR3/CD32-expressing 293T cells) (Homo sapiens, UniProt O15455); experiment: Titration on HEK293T cells expressing TLR3 ECD-CD32 solely at the cell surface (FACS); assay type: binding; conditions: neutral pH
T1 construct: transiently transfected with the wild-type or mutant TLR3 ECD-CD32 construct; expressed in transfected cells; host or cells: HEK293T, transient, pcDNA3.1
Description: as §1, §2
Additionally, binding (e.g. affinity) to cell surface TLR3 at neutral pH may differ from that of endosomally-expressed TLR3 at acidic pH. Antibodies were tested for binding to cells expressing human TLR3 solely at the cell surface (TLR3/CD32-expressing 293T cells), at neutral pH conditions since pH could potentially affect TLR3 conformation.

[4] = target: human TLR3 (Homo sapiens, UniProt O15455); experiment: 293T-TLR3-ISRE luciferase reporter assay; assay type: cell-based; conditions: dsRNA TLR3 agonists
Text: A reporter gene assay using as promoter ISRE (IFN-stimulated response element) and as reporter gene and protein luciferase was set up. A 293T cell line (ATCC, #CRL-1573) was stably transfected with pISRE-luc plasmid (#219089—Stratagene), further selected by cloning as inducing optimal response to IFN-alpha stimulation and referred to as control 293T-ISRE. This cell line was further stably transfected with pUNO-humanTLR3 plasmid (#puno-htlr3—InVivogen) and referred to as 293T-TLR3-ISRE.
Efficacy assay was performed as described: on day 0, cells are seeded at 4×10^5 cells/mL in complete culture medium in 96-well culture plate (100 μl/well). Cells are first incubated at 37° C. for 20 hours, then 50 μL of medium are discarded and cells are activated with 25 μl/well final of fixed amounts of polyAU together with increasing concentrations of anti-TLR3 antibodies. Cells incubated with fresh medium will be used as background luciferase activity (50 μl/well). Cells are incubated at 37° C. for 6 hours. 100 μL of freshly thawed Steady Glo (Promega) are added to each well, plates were incubated 10 min at RT in the dark and the light emitted in each well is quantified as Count Per Second (CPS) on a gamma-counter (TopCount) apparatus.
Antibodies were tested for inhibition of TLR3 signaling in a luciferase based reporter gene activity (293T-TLR3-ISRE). Engagement of TLR3 receptor using TLR3-agonists such as poly (I:C) has been reported to activate the type-IFN pathway including the promoter ISRE (Wietek et al. J. Biol. Chem., 278 (51), p50923, 2003). Briefly, dsRNA TLR3 agonists were used to induce TLR3 signaling in the reporter assay in the presence of anti-TLR3 antibodies, and TLR3 signaling was assessed. […] Each antibody is compared with reference antibody 31C3.

Row | binding to surface-expressed human TLR3 [3] | inhibition of dsRNA-induced TLR3 signaling, potency compared with antibody 31C3 [4] | Molecule | infiltration of neutrophils into the airways (BAL differential cell count) ([1]; 28G7 i.p. 500 μg twice per week, roflumilast 3 mg/kg oral five times per week) | BAL macrophages and lymphocytes [1] | binding to wild type TLR3 and mutants K145E, D116R, E171A, K182E or N196A [2] | binding to TLR3 in presence of the mutation K145E or K182E [2]
1 | – | – | O=C(Nc1c(Cl)cncc1Cl)c1ccc(OC(F)F)c(OCC2CC2)c1 [Roflumilast, roflumilast] | decreased infiltration of neutrophils | decreases in macrophages | – | –
2 | strong binding | more potent | 11E1: mouse anti-human TLR3 monoclonal antibody; VH SEQ ID NO: 3, VL SEQ ID NO: 4 (antibody, listed as Mus musculus, V domains shown) VH: QVQLQQPGAELVRPGASVKLSCKASGYTFTNYWMNWVKQRPGQGLEWIGMIDPSDSETHYNQMFKDKATLTVDKSSSTAYMQLSSLTSEDSAVYYCARGGASSDYYYFDYWGQGTTLTVSSASTK VL: ETTVTQSPASLSMAIGEKVTIRCITSTDIHDDINWYQQKPGEPPKLLISEGNTLRPGVPSRFSSSGYGTDFVFTIENMLSEDVADYYCLQSDNLPRTFGGGTKLEIKRT | – | – | did not show any loss of binding | bound TLR3
3 | – | more potent | 37B7: rat anti-human TLR3 monoclonal antibody; VH SEQ ID NO: 36, VL SEQ ID NO: 37 (antibody, listed as Rattus norvegicus, V domains shown) VH: QVQLQQSGTELVKPGSSVKISCKASGYTFTSNYMHWIRQLPGNGLEWIGWIFPGDGDTNYNQKFNGKATLTADKSSSTAYMQLSSLTSEDYAVYFCARSDGDWYFDFWGPGTMVTVSS VL: DIQMTQSPGSLSASLGETVTIQCQASEDIYSGLAWYQQKPRKSPQLLISAASRLQDGVPSRFSGSGSGTQYSLKISSMQTEDEGVYFCQQGVKYPNTFGPGTKLELK | – | – | did not show any loss of binding | bound TLR3
4 | strong binding | more potent | 32C4: rat anti-human TLR3 monoclonal antibody; VH SEQ ID NO: 25, VL SEQ ID NO: 26 (antibody, listed as Rattus norvegicus, V domains shown) VH: EVQLQQYGAELGKPGTSVKLSCKVSGYNIWSTYIYWVNQRPGKGLEWIGRIDPANGNTIYAEKFKTKATLTADTSSNTAYMQLSQLKSDDTAIYFCAMGDHGGYVMDAWGQGASVTVSS VL: DIQMTQSPGSLSASLGETVSIECLASEDIYSYLAWYQQKPGKSPQLLIYAANRLEDGVPSRFSGSGSGTQYSLKISGMQPEDEGDYFCLQGSEFPYTFGTGTKLELK | – | – | did not show any loss of binding | bound TLR3
5 | strong binding | more potent | 7G11: rat anti-human TLR3 monoclonal antibody; VH SEQ ID NO: 47, VL SEQ ID NO: 48 (antibody, listed as Rattus norvegicus, V domains shown) VH: EVQLQQYGAELGKPGTSVKLSCKVSGYNITYTYMHWVNQRPGKGLEWIGRIDPANGNTIYGEKFKNKATLTADTSSNTAYMQLSQLKSDDTAIYFCAMGEFDYFDHWGQGVMVTVSS VL: DIQMTQSPASLSASLGETVSIECLASEDISNDLAWYQQKSGKSPQVLIYAASRLEDGVPSRFSGSGSGTRYSLKISGMQPEDEADYFCQQSYKYPVTFGSGTKLEIK | – | – | did not show any loss of binding | bound TLR3
6 | strong binding | more potent | 31F6: rat anti-human TLR3 monoclonal antibody; VH SEQ ID NO: 14, VL SEQ ID NO: 15 (antibody, listed as Rattus norvegicus, V domains shown) VH: EVQLQQSGAELGKPGTSVKLSCKVSGYNIRYTYMHWVNQRPGKGLEWIGRIDPANGDSIYGEDFKTKATLTADTSSNTAYMQLSQLKSDDTAIYFCAMGEFDYFDYWGQGVMVTVSSASTK VL: DIQMTQSPPSLSASLGETVSIECLASEGISNDLAWYQQRSGKSPQLLIYAASRLQDGVPSRFSGSGSGTRYSLKISGMQPEDEADYFCQQNYKYPLTFGSGTKLEIK | – | – | did not show any loss of binding | bound TLR3
